The target in one test is AKAP7γ-EGFP (human). The experiment in a line: photon counting histogram analysis (fluorescence fluctuation); AKAP7γ-EGFP in live HEK-293 cells, cytoplasm; two-component global fit with brightness constrained to monomeric and tandem EGFP; apparent Kd, monomer to dimer; 75 measurements from 5 cells.
The target of test [1] is His/S-tagged AKAP7γ (human). Nature of the test: SPR; Biacore T100; AKAP7γ or AKAP7α amine-coupled to a CM5 chip (150 RU) in separate flow chambers; analytes AKAP7γ or AKAP7α 12.5–200 nM in HBS (10 mM Hepes pH 7.4, 150 mM NaCl, 0.005% Surfactant P20), 30 μL/min, 300 s; heterogeneous analyte model. In general terms: In SPR one partner is held on a chip, and binding of the other changes the refractive index at the surface.

Several values for one entry are separate records, joined by “and”; a condition that tells them apart may be missing. Equal values may be shown once.

On to AKAP7γ-EGFP (natural protein), for which, in the test with AKAP7γ-EGFP (human), the Kd was 0.0788 to 0.126 µM and 0.0984 µM; the percent of the particles detected that are dimer turned out to be 20%; the percent of the protein in the dimeric form amounted to 28.7%; the stoichiometry N (as a rule, a count of units in the complex or per binding partner) stood at 2.
In test [1], His/S-tagged AKAP7γ (natural protein) gave a KD, site 1 (heterogeneous analyte model) of 0.000537 µM and a KD, site 2 (heterogeneous analyte model) of 0.0797 µM.
